In article PMC2756588:

T1: Bbc1, P47068
T1 sequence (P47068 1-78, looked up): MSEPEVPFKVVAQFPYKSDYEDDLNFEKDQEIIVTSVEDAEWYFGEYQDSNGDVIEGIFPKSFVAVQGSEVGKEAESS

T2: Hse1, P38753
T2 sequence (P38753 208-285, looked up): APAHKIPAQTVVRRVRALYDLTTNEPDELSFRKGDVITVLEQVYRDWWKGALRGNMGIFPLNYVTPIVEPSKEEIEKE

T3: Myo5, Q04439
T3 sequence (Q04439 1072-1160, looked up): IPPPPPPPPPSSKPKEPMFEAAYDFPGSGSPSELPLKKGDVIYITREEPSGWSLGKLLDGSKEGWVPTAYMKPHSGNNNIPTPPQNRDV

T4: Lsb4, P32793
T4 sequence (P32793 402-468, looked up): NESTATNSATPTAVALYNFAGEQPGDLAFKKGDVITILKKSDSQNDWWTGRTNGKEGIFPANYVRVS

T5: Sla1-3, P32790
T5 sequence (P32790 344-424, looked up): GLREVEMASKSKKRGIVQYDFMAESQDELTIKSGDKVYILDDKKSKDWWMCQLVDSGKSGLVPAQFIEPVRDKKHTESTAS

T6: Nbp2, Q12163
T6 sequence (Q12163 103-180, looked up): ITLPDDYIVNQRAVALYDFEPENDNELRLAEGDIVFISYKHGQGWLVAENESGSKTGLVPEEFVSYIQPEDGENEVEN

T7: Boi2, P39969
T7 sequence (P39969 32-116, looked up): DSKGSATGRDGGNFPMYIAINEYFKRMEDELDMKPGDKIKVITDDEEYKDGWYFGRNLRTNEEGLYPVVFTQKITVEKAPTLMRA

T8: Cdc25, P04821
T8 sequence (P04821 50-136, looked up): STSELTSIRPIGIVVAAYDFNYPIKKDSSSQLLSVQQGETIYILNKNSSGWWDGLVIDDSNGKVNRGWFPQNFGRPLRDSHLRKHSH

T9: Sla1-2, P32790
T9 sequence (P32790 60-140, looked up): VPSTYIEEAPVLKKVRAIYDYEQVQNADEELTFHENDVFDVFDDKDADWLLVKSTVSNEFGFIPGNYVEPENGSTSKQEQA

T10: Lsb1, P53281
T10 sequence (P53281 45-122, looked up): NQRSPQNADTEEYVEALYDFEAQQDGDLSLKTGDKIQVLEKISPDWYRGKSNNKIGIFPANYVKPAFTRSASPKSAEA

T11: Pin3, Q06449
T11 sequence (Q06449 53-122, looked up): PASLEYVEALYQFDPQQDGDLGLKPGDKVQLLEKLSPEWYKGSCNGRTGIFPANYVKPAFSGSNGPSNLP

T12: Boi1, P38041
T12 sequence (P38041 1-86, looked up): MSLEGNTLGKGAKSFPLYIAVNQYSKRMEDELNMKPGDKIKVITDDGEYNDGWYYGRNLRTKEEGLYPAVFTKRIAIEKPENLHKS

T13: Abp1, P15891
T13 sequence (P15891 535-592, looked up): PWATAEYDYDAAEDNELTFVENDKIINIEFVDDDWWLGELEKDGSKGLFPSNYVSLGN

T14: Lsb3, P43603
T14 sequence (P43603 385-451, looked up): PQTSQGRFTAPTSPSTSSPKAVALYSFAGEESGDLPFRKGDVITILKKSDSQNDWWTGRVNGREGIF

T15: Cyk3, Q07533
T15 sequence (Q07533 1-83, looked up): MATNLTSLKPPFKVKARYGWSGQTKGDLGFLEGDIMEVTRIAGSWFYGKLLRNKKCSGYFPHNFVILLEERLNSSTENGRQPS

T16: Fus1, P11710
T16 sequence (P11710 432-512, looked up): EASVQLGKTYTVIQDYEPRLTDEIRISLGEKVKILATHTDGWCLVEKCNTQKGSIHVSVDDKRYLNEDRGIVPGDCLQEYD

T17: Bud14, P27637
T17 sequence (P27637 247-328, looked up): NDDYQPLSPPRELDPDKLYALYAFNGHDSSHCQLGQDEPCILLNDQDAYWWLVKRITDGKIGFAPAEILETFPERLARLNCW

T18: Bzz1-1, P38822
T18 sequence (P38822 478-572, looked up): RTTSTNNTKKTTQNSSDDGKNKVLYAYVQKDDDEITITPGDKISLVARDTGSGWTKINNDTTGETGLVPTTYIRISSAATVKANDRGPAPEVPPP

T19: Pex13, P80667
T19 sequence (P80667 295-386, looked up): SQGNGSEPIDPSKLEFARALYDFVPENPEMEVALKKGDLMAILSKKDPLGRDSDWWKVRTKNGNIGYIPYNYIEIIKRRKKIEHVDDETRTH

T20: Hof1, Q05080
T20 sequence (Q05080 590-669, looked up): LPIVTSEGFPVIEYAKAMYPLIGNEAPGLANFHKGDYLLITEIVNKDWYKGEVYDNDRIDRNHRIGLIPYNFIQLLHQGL

T21: Bzz1-2, P38822
T21 sequence (P38822 568-633, looked up): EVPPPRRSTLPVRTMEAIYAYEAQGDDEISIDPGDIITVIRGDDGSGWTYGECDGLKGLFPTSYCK

B1: unnamed (peptide)
chain: QFDLKMPSKPIHNLK
B2: unnamed (peptide)
chain: FLIKFTPKFPQSIDH
B3: unnamed (peptide)
chain: VGFRLALKFPSRITG
B4: unnamed (peptide)
chain: ALFRLSFFFPLDPAY

Target: T1, Bbc1, P47068
Experiment: SPOT array
Conditions: median of control spots 796

Binder | SPOT intensity
B1 | 0
B2 | 44
B3 | 663
B4 | 218

Target: GST
Experiment: SPOT array
Conditions: median of control spots 978

Binder | SPOT intensity
B1 | 0
B2 | 0
B3 | 0
B4 | 1

Target: T2, Hse1, P38753
Experiment: SPOT array
Conditions: median of control spots 1727

Binder | SPOT intensity
B1 | 0
B2 | 25
B3 | 113
B4 | 116

Target: Rvs167, P39743
Sequence (P39743 419-482): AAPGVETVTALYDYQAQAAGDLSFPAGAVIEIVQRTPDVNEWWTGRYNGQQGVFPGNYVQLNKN
Experiment: SPOT array
Conditions: median of control spots 2707

Binder | SPOT intensity
B1 | 6
B2 | 2
B3 | 6
B4 | 8

Target: T3, Myo5, Q04439
Experiment: SPOT array
Conditions: median of control spots 471

Binder | SPOT intensity
B1 | 29
B2 | 27
B3 | 69
B4 | 17

Target: Myo3, P36006
Experiment: SPOT array
Conditions: median of control spots 468

Binder | SPOT intensity
B1 | 34
B2 | 77
B3 | 164
B4 | 44

Target: Sho1, P40073
Sequence (P40073 287-367): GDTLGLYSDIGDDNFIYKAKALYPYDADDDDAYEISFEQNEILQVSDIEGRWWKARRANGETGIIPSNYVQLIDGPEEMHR
Experiment: SPOT array
Conditions: median of control spots 1148

Binder | SPOT intensity
B1 | 7
B2 | 304
B3 | 718
B4 | 168

Target: T4, Lsb4, P32793
Experiment: SPOT array
Conditions: median of control spots 397

Binder | SPOT intensity
B1 | 27
B2 | 63
B3 | 207
B4 | 21

Target: T5, Sla1-3, P32790
Experiment: SPOT array
Conditions: median of control spots 5475

Binder | SPOT intensity
B1 | 0
B2 | 13
B3 | 124
B4 | 54

Target: T6, Nbp2, Q12163
Experiment: SPOT array
Conditions: median of control spots 357

Binder | SPOT intensity
B1 | 0
B2 | 418
B3 | 1100
B4 | 283

Target: T7, Boi2, P39969
Experiment: SPOT array
Conditions: median of control spots 1161

Binder | SPOT intensity
B1 | 2
B2 | 0
B3 | 70
B4 | 17

Target: T8, Cdc25, P04821
Experiment: SPOT array
Conditions: median of control spots 969

Binder | SPOT intensity
B1 | 1
B2 | 209
B3 | 490
B4 | 359

Target: T9, Sla1-2, P32790
Experiment: SPOT array
Conditions: median of control spots 712

Binder | SPOT intensity
B1 | 2
B2 | 10
B3 | 52
B4 | 4

Target: T10, Lsb1, P53281
Experiment: SPOT array
Conditions: median of control spots 388

Binder | SPOT intensity
B1 | 1
B2 | 46
B3 | 452
B4 | 49

Target: T11, Pin3, Q06449
Experiment: SPOT array
Conditions: median of control spots 2171

Binder | SPOT intensity
B1 | 68
B2 | 41
B3 | 150
B4 | 39

Target: T12, Boi1, P38041
Experiment: SPOT array
Conditions: median of control spots 1162

Binder | SPOT intensity
B1 | 0
B2 | 7
B3 | 152
B4 | 192

Target: T13, Abp1, P15891
Experiment: SPOT array
Conditions: median of control spots 935

Binder | SPOT intensity
B1 | 41
B2 | 417
B3 | 489
B4 | 142

Target: T14, Lsb3, P43603
Experiment: SPOT array
Conditions: median of control spots 406

Binder | SPOT intensity
B1 | 9
B2 | 32
B3 | 166
B4 | 16

Target: Bem1-2, P29366
Sequence (P29366 139-227): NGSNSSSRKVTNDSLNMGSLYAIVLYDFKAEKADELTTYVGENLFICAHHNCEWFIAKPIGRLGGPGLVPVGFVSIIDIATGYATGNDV
Experiment: SPOT array
Conditions: median of control spots 4347

Binder | SPOT intensity
B1 | 0
B2 | 0
B3 | 0
B4 | 27

Target: T15, Cyk3, Q07533
Experiment: SPOT array
Conditions: median of control spots 1451

Binder | SPOT intensity
B1 | 0
B2 | 0
B3 | 25
B4 | 13

Target: T16, Fus1, P11710
Experiment: SPOT array
Conditions: median of control spots 1200

Binder | SPOT intensity
B1 | 0
B2 | 100
B3 | 430
B4 | 628

Target: T17, Bud14, P27637
Experiment: SPOT array
Conditions: median of control spots 956

Binder | SPOT intensity
B1 | 0
B2 | 5
B3 | 29
B4 | 12

Target: T18, Bzz1-1, P38822
Experiment: SPOT array
Conditions: median of control spots 4446

Binder | SPOT intensity
B1 | 0
B2 | 0
B3 | 3
B4 | 0

Target: T19, Pex13, P80667
Experiment: SPOT array
Conditions: median of control spots 1341

Binder | SPOT intensity
B1 | 95
B2 | 73
B3 | 127
B4 | 93

Target: Bem1-1, P29366
Sequence (P29366 55-141): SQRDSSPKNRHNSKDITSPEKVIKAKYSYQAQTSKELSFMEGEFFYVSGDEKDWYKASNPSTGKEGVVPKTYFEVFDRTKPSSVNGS
Experiment: SPOT array
Conditions: median of control spots 4282

Binder | SPOT intensity
B1 | 0
B2 | 1
B3 | 0
B4 | 0

Target: T20, Hof1, Q05080
Experiment: SPOT array
Conditions: median of control spots 4086

Binder | SPOT intensity
B1 | 0
B2 | 24
B3 | 25
B4 | 33

Target: T21, Bzz1-2, P38822
Experiment: SPOT array
Conditions: median of control spots 4538

Binder | SPOT intensity
B1 | 0
B2 | 9
B3 | 109
B4 | 31
